According to US20160257711A1 (BOARD OF TRUSTEES OF THE UNIVERSITY OF ILLINOIS, published 2016):

Target: T1, integrin αIIbβ3 of human platelets (human, UniProt P08514 32-1039)
T1 construct: whole, on cells; Endogenous receptor; also called integrin β3; glycoprotein IIb-IIIa
Assay: co-IP from platelet lysates and GST pull-downs

B1: Gα13 (G protein α subunit), endogenous protein of human platelets (other)
chain: MADFLPSRSVLSVCFPGCLLTSGEAEQQRKSKEIDKCLSREKTYVKRLVKILLLGAGESGKSTFLKQMRIIHGQDFDQRAREEFRPTIYSNVIKGMRVLVDAREKLHIPWGDNSNQQHGDKMMSFDTRAPMAAQGMVETRVFLQYLPAIRALWADSGIQNAYDRRREFQLGESVKYFLDNLDKLGEPDYIPSQQDILLARRPTKGIHEYDFEIKNVPFKMVDVGGQRSERKRWFECFDSVTSILFLVSSSEFDQVLMEDRLTNRLTESLNIFETIVNNRVFSNVSIILFLNKTDLLEEKVQIVSIKDYFLEFEGDPHCLRDVQKFLVECFRNKRRDQQQKPLYHHFTTAINTENIRLVFRDVKDTILHDNLKQLMLQ
notes: Endogenous Gα13 in detergent lysates of washed human platelets, precipitated or detected with anti-Gα13 antibody; also called G protein subunit Gα13
- binding result: binds
